According to patent publication EP4682169A1 (Gracell Biotechnologies (Shanghai) Co., Ltd., dated 2026):
Numbering of substitutions follows the chain as printed. Several values for one entry are separate records, joined by “and”; a condition that tells them apart may be missing. Equal values may be shown once.

Assays:
[1] = target: T1, human Claudin18.2 expressed on cells (human, UniProt P56856-2 1-261); experiment: flow cytometry on 293FT CLDN18.2-Luc cells, APC anti-mouse IgG Fc
T1 construct: whole, on cells; also called CLDN18.2

Claudin 18.2 VLP [2] = target: T2, Claudin 18.2 VLP (UniProt P56856 1-261); experiment: ELISA, coated antigen 200 ng/well
T2 construct: Antigen coated on ELISA plates, 200 ng/well; source and construct not described; also called Claudin18.2-VLP protein; Claudin18.2 VLP antigen

[3] = target: T3, Claudin18.2 recombinant protein (His tag) (UniProt P56856-2 1-261, limits assumed); experiment: ELISA, coated antigen 200 ng/well
T3 construct: also called Claudin18.2-his antigen; not shown: His tag

Claudin 18.2 VLP [4] = target: T2, Claudin 18.2 VLP; experiment: ELISA, coated antigen 200 ng/well; antibody 0.014 ug/mL
[5] = target: T3, Claudin18.2 recombinant protein (His …); experiment: as above
Claudin 18.2 VLP [6] = target: T2, Claudin 18.2 VLP; experiment: ELISA, coated antigen; lower end, tied by Table 3 to 10-hIgG1Fc on the VLP (4.96 nM)
Claudin 18.2 VLP [7] = target: T2, Claudin 18.2 VLP; experiment: ELISA, coated antigen 200 ng/well; antibody 0.041 ug/mL
[8] = target: T3, Claudin18.2 recombinant protein (His …); experiment: as above
Claudin 18.2 VLP [9] = target: T2, Claudin 18.2 VLP; experiment: ELISA, coated antigen 200 ng/well; antibody 1.111 ug/mL
[10] = target: T3, Claudin18.2 recombinant protein (His …); experiment: as above
Claudin 18.2 VLP [11] = target: T2, Claudin 18.2 VLP; experiment: ELISA, coated antigen 200 ng/well; antibody 0.123 ug/mL
[12] = target: T3, Claudin18.2 recombinant protein (His …); experiment: as above
Claudin 18.2 VLP [13] = target: T2, Claudin 18.2 VLP; experiment: ELISA, coated antigen 200 ng/well; antibody 0 ug/mL (blank well, background)
[14] = target: T3, Claudin18.2 recombinant protein (His …); experiment: as above
Claudin 18.2 VLP [15] = target: T2, Claudin 18.2 VLP; experiment: ELISA, coated antigen 200 ng/well; antibody 0.37 ug/mL
[16] = target: T3, Claudin18.2 recombinant protein (His …); experiment: as above
Claudin 18.2 VLP [17] = target: T2, Claudin 18.2 VLP; experiment: ELISA, coated antigen 200 ng/well; antibody 100 ug/mL (so in the source)
[18] = target: T3, Claudin18.2 recombinant protein (His …); experiment: as above
Claudin 18.2 VLP [19] = target: T2, Claudin 18.2 VLP; experiment: ELISA, coated antigen 200 ng/well; antibody 3.333 ug/mL
[20] = target: T3, Claudin18.2 recombinant protein (His …); experiment: as above
[21] = target: T4, Human Claudin-18.2 protein (human, UniProt P56856-2 1-261, limits assumed); experiment: SPR (Biacore 8K), antibody captured on Protein A, Claudin-18.2 protein as analyte
T4 construct: Soluble analyte injected over captured antibodies in SPR

[22] = target: T1, human Claudin18.2 expressed on cells; experiment: phage flow cytometry, phage supernatant, PE anti-M13

B1: 18-mIgG2aFc (Fc fusion)
chain: QVQLVESGGGLVQPGGSLRLSCAASGSILNLMTTGWYRQAPGKQRDLVATITFGGTTNYADAVKGRFTISRDNAKNTVYLQMNNLEPEDTAVYFCYLDYIFGFGDRRVAWDQGTQVTVSS
notes: Fusion antibody anti-Claudin18.2 VHH-mIgG2aFc; not shown: mouse IgG2a Fc (mIgG2aFc)
EC50 [1]: 0.06 nM

B2: 10-hIgG1Fc (Fc fusion)
chain: QVQLAESGGGLVQPGGSLRLSCAASGNILSINYMGWYRQAPGKERELVATITRGGTTNYQGDLKGRFIISGDNTKDTVYLQMNNLQPEDTAVYYCYFRINFGILGGLRDYWGQGTQVTVSS
notes: VHH-hIgG1Fc recombinant antibody; also called 10-hlgG1Fc; VHH-hIgG1Fc recombinant antibody of clone 10; not shown: human IgG1 Fc (hIgG1Fc)
EC50 (Claudin 18.2 VLP [2]): 0.4 µg/mL and 4.96 nM
EC50 [3]: 4 µg/mL and 50 nM
absorbance at 450 nm (Claudin 18.2 VLP [4]): 0.329
absorbance at 450 nm [5]: 0.063
EC50 (Claudin 18.2 VLP [6]): 4 nM
absorbance at 450 nm (Claudin 18.2 VLP [7]): 0.355
absorbance at 450 nm [8]: 0.084
absorbance at 450 nm (Claudin 18.2 VLP [9]): 2.14
absorbance at 450 nm [10]: 1.06
absorbance at 450 nm (Claudin 18.2 VLP [11]): 0.568
absorbance at 450 nm [12]: 0.172
absorbance at 450 nm (Claudin 18.2 VLP [13]): 0.311
absorbance at 450 nm [14]: 0.054
absorbance at 450 nm (Claudin 18.2 VLP [15]): 1.46
absorbance at 450 nm [16]: 0.476
absorbance at 450 nm (Claudin 18.2 VLP [17]): 2.62
absorbance at 450 nm [18]: 3.38
absorbance at 450 nm (Claudin 18.2 VLP [19]): 2.51
absorbance at 450 nm [20]: 2.15

B3: 2-mIgG2aFc (Fc fusion)
chain: B2 chain with Q1E, A5V, T56S, D62N
notes: Fusion antibody anti-Claudin18.2 VHH-mIgG2aFc; also called 2-mIgG Fc; 2-mlgG2a Fc; not shown: mouse IgG2a Fc (mIgG2aFc)
EC50 [1]: 0.02 nM
Kd [21]: 1.1 nM
koff [21]: 0.00052 s⁻¹
kon [21]: 471000 M⁻¹ s⁻¹

B4: 5-mIgG2aFc (Fc fusion)
chain: QVQLVESGGGLVQTGGSLRLSCAASDSTFSSYIMGWFRQAPGKEREFVAGITWSGGIKDYADSVKGRFTIARDNAKNTVYLQMNSLKPEDAAIYYCAANAIQLTRRSGDYAYWGQGTQVTVSS
notes: Fusion antibody anti-Claudin18.2 VHH-mIgG2aFc; also called 5-mIgG Fc; 5-mlgG2a Fc; not shown: mouse IgG2a Fc (mIgG2aFc)
EC50 [1]: 0.013 nM
Kd [21]: 3.02 nM
koff [21]: 0.000373 s⁻¹
kon [21]: 123000 M⁻¹ s⁻¹

B5: 5-hIgG1Fc (Fc fusion)
chain: B4 chain
notes: VHH-hIgG1Fc recombinant antibody; also called 5-hlgG1Fc; VHH-hIgG1Fc recombinant antibody of clone 5; not shown: human IgG1 Fc (hIgG1Fc)
EC50 (Claudin 18.2 VLP [2]): 0.55 µg/mL and 6.87 nM
EC50 [3]: 0.81 µg/mL and 10.1 nM
absorbance at 450 nm (Claudin 18.2 VLP [4]): 0.274
absorbance at 450 nm [5]: 0.108
absorbance at 450 nm (Claudin 18.2 VLP [7]): 0.275
absorbance at 450 nm [8]: 0.207
absorbance at 450 nm (Claudin 18.2 VLP [9]): 1.86
absorbance at 450 nm [10]: 2.53
absorbance at 450 nm (Claudin 18.2 VLP [11]): 0.39
absorbance at 450 nm [12]: 0.463
absorbance at 450 nm (Claudin 18.2 VLP [13]): 0.247
absorbance at 450 nm [14]: 0.057
absorbance at 450 nm (Claudin 18.2 VLP [15]): 0.942
absorbance at 450 nm [16]: 1.41
absorbance at 450 nm (Claudin 18.2 VLP [17]): 2.35
absorbance at 450 nm (Claudin 18.2 VLP [19]): 2.14
absorbance at 450 nm [20]: 3.5

B6: 5H2-mIgG2a Fc (Fc fusion)
chain: B4 chain with T14P, E44G, R45L, A75S, V79L, K87R, P88A, I93V, Q118L
notes: also called 5H2-mIgG Fc; 5H2-mlgG2a Fc; not shown: mouse IgG2a Fc
Kd [21]: 3.32 nM
koff [21]: 0.000417 s⁻¹
kon [21]: 126000 M⁻¹ s⁻¹

B7: 5H1-mIgG Fc (Fc fusion)
chain: B4 chain with F37V, E44G, R45L, F47W
notes: Subclass printed only as mIgG Fc for this one; also called 5H1-mlgG Fc; H1-mlgG Fc; not shown: mouse IgG Fc (printed mIgG Fc)
Kd [21]: 7.21 nM
koff [21]: 0.000552 s⁻¹
kon [21]: 76600 M⁻¹ s⁻¹

B8: VHH clone 14 (phage-displayed) (VHH)
VHH: EVQLVESGGGLVQPGGSLRLSCAASGSLFSIITMGWYRQAPGKQRELVATVTRGGRLNYGDSVKGRFTISSGNVENTLDLQMNNLKPEDTAVYYCNAILESGNFWGRGTQVTVSS
notes: Tested as phage supernatant, detected with PE anti-M13; also called Clone ID 14
binding result [22]: binds

B9: VHH clone 4 (phage-displayed) (VHH)
VHH: EVQLVESGGGLVQPGGSLRLSCAASGQFFSLNYLAWYRQAPGSQRELIALVSSGGSTQYGDSVKGRFTISRDNAKNTVYLQMASLKPEDTAVYYCNLHTYDFLGRDYWGQGTQVTISS
notes: Tested as phage supernatant, detected with PE anti-M13; also called Clone ID 4
binding result [22]: binds

B10: VHH clone 11 (phage-displayed) (VHH)
VHH: QVQLVESGGGLVQPGGSLRLSCAASGNILSINYMGWYRQAPGKERELVAIITRGGSTTYAPSLKGRFTISGDNAKDTVYLQMNSLQPEDTAVYYCNFRINFGILGGLRDYWGQGTQVTVSS
notes: Tested as phage supernatant, detected with PE anti-M13; also called Clone ID 11
binding result [22]: binds

B11: VHH clone 3 (phage-displayed) (VHH)
VHH: QVQLVESGGGLVQAGDSVRLSCAASGQTLSNYNVAWFRQAPGKEREFVAGATWSGRITNYSDSVRGRFTISRDNAKNTVYLQMNSLGPGDTAVYHCAANSFQLGDKPGDYHYWGQGTQVTVSS
notes: Tested as phage supernatant, detected with PE anti-M13; also called Clone ID 3
binding result [22]: binds

B12: 8-hIgG1Fc (Fc fusion)
chain: QVQLVESGGGLVQPGGSLRLSCAASGSIFGLNFMGWWRQAPGSQRELVAIATSGGSIQYGDSVKGRFTISRDNAKNTVYLQMASLKPEDTAVYYCNVHTYDFLGRDYWGQGTQVTVSL
notes: VHH-hIgG1Fc recombinant antibody; also called 8-hlgG1 Fc; VHH-hIgG1Fc recombinant antibody of clone 8; not shown: human IgG1 Fc (hIgG1Fc)
EC50 (Claudin 18.2 VLP [2]): 0.61 µg/mL and 7.66 nM
absorbance at 450 nm (Claudin 18.2 VLP [4]): 0.326
absorbance at 450 nm (Claudin 18.2 VLP [7]): 0.337
absorbance at 450 nm (Claudin 18.2 VLP [9]): 1.87
absorbance at 450 nm (Claudin 18.2 VLP [11]): 0.474
absorbance at 450 nm (Claudin 18.2 VLP [13]): 0.289
absorbance at 450 nm (Claudin 18.2 VLP [15]): 0.931
absorbance at 450 nm (Claudin 18.2 VLP [17]): 2.46
absorbance at 450 nm (Claudin 18.2 VLP [19]): 2.1

B13: VHH clone 9 (phage-displayed) (VHH)
VHH: B12 chain with Q1E, S84N
notes: Tested as phage supernatant, detected with PE anti-M13; also called Clone ID 9
binding result [22]: binds
